Experiment [1] has as its target human PD-L1, full-length, expressed on Expi293 cells (human) (UniProt Q9NZQ7). The experiment in a line: flow cytometry, transfected cells.
In experiment [2] the target is human CD28, full-length, expressed on Expi293 cells (human) (UniProt P10747). Briefly: flow cytometry, transfected cells. In general terms: In flow cytometry, cells or beads pass a laser one at a time.
Experiment [3] deals with human PD-L1 (human) (UniProt Q9NZQ7). Briefly: flow cytometry, transfected cells.
Experiment [4] addresses human CD28 (human) (UniProt P10747). The experiment in a line: flow cytometry, transfected cells.
Experiment [5] has as its target human CD28, full length, expressed on transfected Expi293 cells (human) (UniProt P10747). Briefly: flow cytometry, Expi293 cells transfected with human CD28.

Results on eight molecules are retold here after patent US20240409660A1.

Take “stacked IgV-Fc fusion: domain 1 CD80 WT, domain 2 ICOSL WT”: the MFI in experiment [1] came out at 2660 MFI; in experiment [2] it was 1230 MFI.

In experiment [3], “stacked IgV-Fc: Domain 1 CD80 WT / Domain 2 ICOSL WT (Fc fusion)” came in with an MFI of 1230 MFI.

Regarding “variant ICOSL ECD-Fc T43A, N52H, N57Y, L74Q, D89G, V110D, F172S (Fc fusion)”, in experiment [4], the parental ratio is 0.49.

“stacked IgV-Fc: Domain 1 ICOSL WT / Domain 2 CD80 WT (Fc fusion)” displayed an MFI in experiment [3] of 3000 MFI.

As to “CD80 K36G/K37Q/M38I/L40M/F59L/E81V/L85R/K89N/A91T/F92P/K93V/R94L/E99G/T130A/N149S ECD-Fc (Fc fusion)”, in experiment [2], the MFI ratio to WT CD80 (parental ratio) came out at 0.1.

Consider “stacked IgV-Fc fusion: domain 1 NKp30 WT, domain 2 ICOSL WT”, for which the MFI in experiment [2] was determined as 6340 MFI.

“stacked IgV-Fc fusion: domain 1 ICOSL WT, domain 2 NKp30 WT” displayed an MFI in experiment [2] of 7920 MFI.

B1: ICOSL F120S/Y152H/N201S variant ECD-Fc fusion (Fc fusion)
chain: DTQEKEVRAMVGSDVELSCACPEGSRFDLNDVYVYWQTSESKTVVTYHIPQNSSLENVDSRYRNRALMSPAGMLRGDFSLRLFNVTPQDEQKFHCLVLSQSLGFQEVLSVEVTLHVAANSSVPVVSAPHSPSQDELTFTCTSINGYPRPNVHWINKTDNSLLDQALQNDTVFLNMRGLYDVVSVLRIARTPSVNIGCCIESVLLQQNLTVGSQTGNDIGERDKITENPVSTGEKNAATAAAEPKSSDKTHTCPPCPAPELLGGPSVFLFPPKPKDTLMISRTPEVTCVVVDVSHEDPEVKFNWYVDGVEVHNAKTKPCEEQYGSTYRCVSVLTVLHQDWLNGKEYKCKVSNKALPAPIEKTISKAKGQPREPQVYTLPPSREEMTKNQVSLTCLVKGFYPSDIAVEWESNGQPENNYKTTPPVLDSDGSFFLYSKLTVDKSRWQQGNVFSCSVMHEALHNHYTQKSLSLSPGK
B1: the MFI ratio to parental (WT ICOSL) in experiment [5] turned out to be 0.89.
